Assay [1] deals with T1, Biotinylated recombinant human IL-13Rα1 ectodomain with C-terminal biotin acceptor peptide and hexahistidine … (human, UniProt P78552 22-343, biotin on the biotin acceptor peptide (coexpressed with BirA ligase)).
T1 construct: extracellular domain; also called recombinant IL13Rα1; biotinylated IL13Rα1
T1 sequence: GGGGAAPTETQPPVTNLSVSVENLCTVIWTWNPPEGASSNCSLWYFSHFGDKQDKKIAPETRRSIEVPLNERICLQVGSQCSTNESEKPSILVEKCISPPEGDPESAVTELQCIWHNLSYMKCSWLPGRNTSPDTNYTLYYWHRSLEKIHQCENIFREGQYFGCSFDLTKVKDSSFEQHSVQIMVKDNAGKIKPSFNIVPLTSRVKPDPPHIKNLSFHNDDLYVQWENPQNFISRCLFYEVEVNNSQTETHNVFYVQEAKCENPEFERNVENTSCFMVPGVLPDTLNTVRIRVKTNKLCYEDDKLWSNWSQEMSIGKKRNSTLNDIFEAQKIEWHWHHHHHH
In words: SPR; ratio column of the drawn table, IL13Rα1. The source says: (§1) FIG. 2A-2F: IL-13Rα1 and IL-13Rα2 binding affinities of the IL-13 variant. (A-C) Surface plasmon resonance measurements of IL-13, IL-13 D7 and IL-13 C4 for IL-13Rα1. IL-13Rα1 was immobilized on the surface of the chip and the indicated doses of IL-13 or the two IL-13 mutants were flowed. (D-F) Surface plasmon resonance measurements of IL-13,IL-13 D7 and IL-13 C4 for IL-13Rα2. IL-13Rα2 was immobilized on the surface of the chip and the indicated doses of IL-13 or the two IL-13 mutants were flowed.
(§2) SPR experiments were conducted on a Biacore T100 instrument using a Biacore SA sensor chip (GE Healthcare). Biotinylated IL-13Rα1/IL-13Rα2 was captured at a low density (50-100 response units (RU)) and kinetics measurements were conducted at 30 μL/min. An unrelated biotinylated protein was immobilized as a reference surface for the SA sensor chip with matching RU to the experimental surface. All measurements were made using 3-fold serial dilutions of IL-13 agonists in the running buffer (1×HBS-P, 0.1% BSA). The IL-13Rα1/IL-13Rα2 bound to the chip surface was regenerated with 7 mM glycine (pH 3.0) and 250 mM NaCl. Kinetic parameters were determined using 120 s to 190 s of IL-13 agonist association time and 20 s to 1200 s dissociation time. All data fitting was performed using the Biacore T100 evaluation software version 2.0 with a 1:1 Langmuir binding model.
Background: SPR reads the build-up and loss of mass on a sensor chip optically.

For assay [2], the target named is T2, Biotinylated recombinant human IL-13Rα2 ectodomain with C-terminal biotin acceptor peptide and hexahistidine … (human, UniProt Q14627 27-343, biotin on the biotin acceptor peptide (coexpressed with BirA ligase)).
T2 construct: extracellular domain; also called recombinant IL13Rα2; biotinylated IL13Rα2
T2 sequence: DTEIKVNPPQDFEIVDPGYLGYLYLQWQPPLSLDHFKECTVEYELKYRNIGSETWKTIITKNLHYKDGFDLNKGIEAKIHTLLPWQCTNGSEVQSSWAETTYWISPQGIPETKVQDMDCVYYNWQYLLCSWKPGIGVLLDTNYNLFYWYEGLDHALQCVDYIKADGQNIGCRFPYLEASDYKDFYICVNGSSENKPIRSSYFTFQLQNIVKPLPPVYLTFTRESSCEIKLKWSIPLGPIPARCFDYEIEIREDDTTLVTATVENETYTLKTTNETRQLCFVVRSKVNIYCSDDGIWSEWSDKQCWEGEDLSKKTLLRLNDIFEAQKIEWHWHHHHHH
As to the kind of experiment: SPR; ratio of the affinities for IL13Rα2 and IL13Rα1 (reference: IL13Rα1). The procedure: as §2

In assay [3] the target is T2, Biotinylated recombinant human IL-13Rα2 …. As to the kind of experiment: SPR, Biacore T100, biotinylated receptor captured on SA chip, cytokine flowed, 1:1 Langmuir fit. The procedure: as §2
Assay [4] has the same target. As to the kind of experiment: SPR, IL-13Rα2 immobilized on the chip, IL-13 C4 flowed; panel titled IL-13C4/IL-13Rα2.
Description: as §1, §2

Assay [5] has the same target. As to the kind of experiment: SPR (Biacore T100), biotinylated IL-13Rα2 captured on SA chip, IL-13 C4 flowed, 1:1 Langmuir fit.
Description: as §1, §2

The target of assay [6] is T1, Biotinylated recombinant human IL-13Rα1 …. As to the kind of experiment: SPR (Biacore T100), biotinylated IL-13Rα1 captured on SA chip, IL-13 C4 flowed; Ka and Kd cells are empty. How it is done: as §2
Assay [7] has the same target. In words: SPR, IL-13Rα1 immobilized on the chip, IL-13 C4 flowed; panel titled IL-13C4/IL-13Rα1; Kon and Koff cells empty.
Description: as §1, §2

The target in assay [8] is T2, Biotinylated recombinant human IL-13Rα2 …. In words: SPR, IL-13Rα2 immobilized on the chip, IL-13 D7 flowed; panel titled IL-13D7/IL-13Rα2.
Description: as §1, §2

Assay [9] shares this target. As to the kind of experiment: SPR (Biacore T100), biotinylated IL-13Rα2 captured on SA chip, IL-13 D7 flowed, 1:1 Langmuir fit. How it is done: as §2
Assay [10] deals with T1, Biotinylated recombinant human IL-13Rα1 …. In words: SPR (Biacore T100), biotinylated IL-13Rα1 captured on SA chip, IL-13 D7 flowed; Ka and Kd cells are empty. The procedure: as §2
Assay [11] shares this target. As to the kind of experiment: SPR, IL-13Rα1 immobilized on the chip, IL-13 D7 flowed; panel titled IL-13D7/IL-13Rα1; Kon and Koff cells empty.
Description: as §1, §2

Positions count from the first letter of the chain named.

Usually Kd stands for the concentration at which binding is half-saturated. For orientation: koff means a measure of how fast the partners let go of each other. The kon is the second-order rate constant of association.

B1: IL13 C4 variant, soluble recombinant protein with C-terminal hexahistidine tag (ligand)
chain: GPVPPSTAVRELIEELVNITQNQKAPLCNGSMVWSINLTAGMYCAALESLINVSGCSAIEKTQRMLSGFCPHKVSAGQFSSLHVRDTRIEVAQFVKDLLNHLKELFTEGQFNHHHHHH
notes: also called C4 mutein
Take B1: the KDwt/KD mut in [1] worked out at 8200. The “fold stronger affinity for IL13Rα2 relative to IL13Rα1” value in assay [2] turned out to be 92000 fold. The Kd in assay [3] came out at 393 pM; in assay [6] it was 36 µM; in assay [7] it was 36 µM. Also, the koff in assay [4] and in assay [5] was 0.000764 s⁻¹ each time. The association rate constant (kon) in assay [4] and in assay [5] was 1.94e+06 M⁻¹ s⁻¹ each time.

B2: IL13 D7 variant, soluble recombinant protein with C-terminal hexahistidine tag (ligand)
chain: B1 chain with V9A, V17F, Q63K, S80P, R85K, D86K, N100I, K103R, E104K, T107K
notes: also called D7 mutein
Take B2: the KDwt/KD mut in [1] is 940. In [2], the “fold stronger affinity for IL13Rα2 relative to IL13Rα1” value was 1.4e+06 fold. The Kd in [3] is 3 pM; in assay [10], 4.1 µM; in assay [11], 4.1 µM. In addition, the koff in assay [8] and in [9] was 5.37e-05 s⁻¹ throughout. The kon in assay [8] and in [9] was 1.77e+07 M⁻¹ s⁻¹ in each case.

Values taken from patent US20260000764A1 (CITY OF HOPE, published 2026).
